Measurements from publication PMC3123459.

Molecular target: Acyl-CoA dehydrogenase from Mycobacterium thermoresistibile (Mycobacterium thermoresistibile)
Experiment: crystal structure

Acyl-CoA dehydrogenase from Mycobacterium thermoresistibile (enzyme)
stoichiometry N: 4
